Consider seven molecules from publication PMC7969015 (Nucleic Acids Research, 2021).

What all share (assay): SEC
Data set [1] deals with ΔN-hGTPBP3 (N154-K492) (human).
Data set [2] concerns the target hGTPBP3 G domain P257H (human).
Data set [3] addresses hGTPBP3 G domain (G249-P426) (human).
In data set [4] the target is hGTPBP3 G domain ΔG312-V319 (human).
Data set [5] concerns the target mature hGTPBP3 (hGTPBP3-ΔN20, T21-K492) (human).
The target of data set [6] is hGTPBP3 G domain A322P (human).
The data set “SEC” concerns the molecule itself.

Broadly, the stoichiometry N is the number of molecules, sites or subunits per partner or assembly. The molecule “ΔN-hGTPBP3 (N154-K492) (domain or fragment)” registered a stoichiometry N in data set [1] of 2.

As to “hGTPBP3 G domain P257H (domain or fragment)”, the stoichiometry N in data set [2] was found to be 2. “hGTPBP3 G domain (G249-P426) (domain or fragment)” came in with a stoichiometry N in data set [3] of 2. Take “hGTPBP3 G domain ΔG312-V319 (domain or fragment)”: the stoichiometry N in data set [4] came to 2. Molecule “mature hGTPBP3 (hGTPBP3-ΔN20, T21-K492) (enzyme)” came in with a stoichiometry N in data set [5] of 2. “hGTPBP3 G domain A322P (domain or fragment)” displayed a stoichiometry N in data set [6] of 2.

B1: EcMnmE G domain (G216-G384) (domain or fragment, Escherichia coli, UniProt P25522 216-384, looked up)
chain: GMKVVIAGRPNAGKSSLLNALAGREAAIVTDIAGTTRDVLREHIHIDGMPLHIIDTAGLREASDEVERIGIERAWQEIEQADRVLFMVDGTTTDAVDPAEIWPEFIARLPAKLPITVVRNKADITGETLGMSEVNGHALIRLSARTGEGVDVLRNHLKQSMGFDTNMEG
Regarding B1, in “SEC”, the “stoichiometry N” value was found to be 2.
